This is an account of results in US20140271603.

Series [1] concerns the target T1, recombinant human factor H, Y402 variant, produced in the HEK 293F cell line.
T1 chain: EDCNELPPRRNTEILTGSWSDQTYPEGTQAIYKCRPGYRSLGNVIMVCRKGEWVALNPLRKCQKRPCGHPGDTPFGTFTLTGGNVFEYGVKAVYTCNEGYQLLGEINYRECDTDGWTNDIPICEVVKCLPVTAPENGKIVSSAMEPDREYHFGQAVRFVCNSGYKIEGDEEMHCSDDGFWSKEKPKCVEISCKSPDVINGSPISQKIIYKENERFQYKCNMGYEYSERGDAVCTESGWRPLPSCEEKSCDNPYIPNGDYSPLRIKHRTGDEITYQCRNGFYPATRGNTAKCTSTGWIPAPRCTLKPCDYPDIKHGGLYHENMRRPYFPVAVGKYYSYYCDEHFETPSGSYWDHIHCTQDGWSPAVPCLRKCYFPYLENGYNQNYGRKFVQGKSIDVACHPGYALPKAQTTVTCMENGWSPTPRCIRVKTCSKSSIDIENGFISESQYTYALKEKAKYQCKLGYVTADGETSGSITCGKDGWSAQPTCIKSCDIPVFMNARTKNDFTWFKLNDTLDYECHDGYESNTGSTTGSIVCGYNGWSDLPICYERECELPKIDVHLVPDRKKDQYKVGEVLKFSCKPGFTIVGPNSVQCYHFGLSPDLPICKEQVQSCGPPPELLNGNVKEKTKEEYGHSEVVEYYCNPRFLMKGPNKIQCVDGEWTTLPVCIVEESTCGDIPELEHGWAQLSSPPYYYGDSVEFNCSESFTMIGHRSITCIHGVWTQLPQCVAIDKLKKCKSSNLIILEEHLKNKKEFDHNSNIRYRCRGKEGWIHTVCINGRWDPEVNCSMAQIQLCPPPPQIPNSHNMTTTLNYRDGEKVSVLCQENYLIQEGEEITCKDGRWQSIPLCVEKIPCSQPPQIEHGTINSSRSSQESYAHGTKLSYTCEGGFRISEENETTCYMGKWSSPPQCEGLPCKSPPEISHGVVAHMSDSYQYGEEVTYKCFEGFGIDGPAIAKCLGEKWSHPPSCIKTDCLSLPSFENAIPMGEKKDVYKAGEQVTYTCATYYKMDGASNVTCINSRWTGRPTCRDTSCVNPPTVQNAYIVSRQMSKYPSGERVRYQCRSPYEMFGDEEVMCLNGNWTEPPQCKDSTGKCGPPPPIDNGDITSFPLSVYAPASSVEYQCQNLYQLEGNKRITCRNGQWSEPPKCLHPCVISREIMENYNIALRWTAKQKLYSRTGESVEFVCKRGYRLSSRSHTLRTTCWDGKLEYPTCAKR

Series [2] addresses purified human plasma factor H (batch LFB), P08603.
The target of series [3] is T2, recombinant human factor H, Y402 variant, produced in the PER.C6 cell line.
T2 chain: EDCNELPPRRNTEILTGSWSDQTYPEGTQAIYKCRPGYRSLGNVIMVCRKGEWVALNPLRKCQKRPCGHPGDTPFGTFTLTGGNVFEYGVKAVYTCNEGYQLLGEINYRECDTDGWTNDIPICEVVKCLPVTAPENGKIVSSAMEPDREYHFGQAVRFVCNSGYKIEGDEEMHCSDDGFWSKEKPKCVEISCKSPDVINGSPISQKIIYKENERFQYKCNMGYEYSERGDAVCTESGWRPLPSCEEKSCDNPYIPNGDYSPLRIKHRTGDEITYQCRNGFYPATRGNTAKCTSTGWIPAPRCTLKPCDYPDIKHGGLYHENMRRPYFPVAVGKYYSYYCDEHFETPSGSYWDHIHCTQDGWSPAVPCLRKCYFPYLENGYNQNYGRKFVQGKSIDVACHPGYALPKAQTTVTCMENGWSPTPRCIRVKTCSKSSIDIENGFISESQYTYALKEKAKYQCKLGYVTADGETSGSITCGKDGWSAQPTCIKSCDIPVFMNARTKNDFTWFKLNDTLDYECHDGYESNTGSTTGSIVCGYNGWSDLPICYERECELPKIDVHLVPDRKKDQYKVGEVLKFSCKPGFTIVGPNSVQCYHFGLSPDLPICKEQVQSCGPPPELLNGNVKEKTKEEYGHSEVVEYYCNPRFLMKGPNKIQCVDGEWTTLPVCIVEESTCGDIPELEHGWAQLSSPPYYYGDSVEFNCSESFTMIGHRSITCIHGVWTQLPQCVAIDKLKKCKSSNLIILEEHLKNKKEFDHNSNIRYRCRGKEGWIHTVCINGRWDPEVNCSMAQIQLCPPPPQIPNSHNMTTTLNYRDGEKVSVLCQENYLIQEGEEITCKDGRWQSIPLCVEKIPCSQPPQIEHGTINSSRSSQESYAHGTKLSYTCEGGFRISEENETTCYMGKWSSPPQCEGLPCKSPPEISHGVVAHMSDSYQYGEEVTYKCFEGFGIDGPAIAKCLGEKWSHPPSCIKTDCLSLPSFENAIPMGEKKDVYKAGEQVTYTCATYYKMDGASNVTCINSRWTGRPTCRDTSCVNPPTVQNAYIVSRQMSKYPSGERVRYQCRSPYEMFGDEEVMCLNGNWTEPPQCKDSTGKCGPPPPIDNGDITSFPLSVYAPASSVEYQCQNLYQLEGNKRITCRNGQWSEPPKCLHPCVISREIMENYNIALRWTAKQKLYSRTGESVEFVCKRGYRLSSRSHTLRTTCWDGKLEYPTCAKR

B1: Factor I (protein)
chain: KVTYTSQEDLVEKKCLAKKYTHLSCDKVFCQPWQRCIEGTCVCKLPYQCPKNGTAVCATNRRSFPTYCQQKSLECLHPGTKFLNNGTCTAEGKFSVSLKHGNTDSEGIVEVKLVDQDKTMFICKSSWSMREANVACLDLGFQQGADTQRRFKLSDLSINSTECLHVHCRGLETSLAECTFTKRRTMGYQDFADVVCYTQKADSPMDDFFQCVNGKYISQMKACDGINDCGDQSDELCCKACQGKGFHCKSGVCIPSQYQCNGEVDCITGEDEVGCAGFASVTQEETEILTADMDAERRRIKSLLPKLSCGVKNRMHIRRKRIVGGKRAQLGDLPWQVAIKDASGITCGGIYIGGCWILTAAHCLRASKTHRYQIWTTVVDWIHPDLKRIVIEYVDRIIFHENYNAGTYQNDIALIEMKKDGNKKDCELPRSIPACVPWSPYLFQPNDTCIVSGWGREKDNERVFSLQWGEVKLISNCSKFYGNRFYEKEMECAGTYDGSIDACKGDSGGPLVCMDANNVTYVWGVVSWGENCGKPEFPGVYTKVANYFDWISYHVGRPFISQYNV
B1: the “cofactor activity of Factor I (liquid-phase cleavage of the C3b α′ chain, SDS-PAGE)” value in series [1] was “the recombinant FHs produced by the PER.C6 and HEK 293F lines have a similar cofactor activity of FI and that this activity is comparable to that of the human plasma FH”; in series [2] it was “this activity is comparable to that of the human plasma FH”; in series [3], “the recombinant FHs produced by the PER.C6 and HEK 293F lines have a similar cofactor activity of FI and that this activity is comparable to that of the human plasma FH”.
